The values below come from patent US20250188193A1 (ROCKEFELLER UNIVERSITY, published 2025).

Test [1] concerns the target T1, anti-NP antibody 3B62, afucosylated IgG (monomeric, or as immune complex with NP-BSA) (chain 1 pos 82 (Asn297 EU): afucosylated N-glycan; the Fc is a disulfide-linked homodimer; in FIG. 11E it is complexed with NP-BSA through the Fab arms).
T1 construct: Immune complexes made with NP-BSA (27 conjugations) at a 10:1 molar ratio; also called monomeric 3B62; IgG immune complexes
Put plainly: competition ELISA: nanobody pre-complexed with monomeric afucosylated 3B62, then captured on coated FcγRI; the blocked ligand is FcγRI. Here is the method:
Recombinant FcγR ectodomains were expressed in Expi-293F and purified with Ni-NTA resin as in previously described protocols (S. Chakraborty et al., Sci. Transl. Med., eabm7853 (2022)). […] Plates were then blocked with PBS plus 2% (w/v) BSA. IgG immune complexes were prepared by incubation of an anti-NP (4-hydroxy-3-nitrophenylacetyl) antibody 3B62 with NP-BSA (27 conjugations) at a 10:1 molar ratio for 1h at 4° C. […] IgG immune complexes or monomeric 3B62 were brought to a concentration of 20 ug ml⁻¹ or 2 μg/ml respectively and pre-complexed at a 1:1 (v/v) ratio for 1h at room temperature and then captured on FcγR-coated plates. Following 1h incubation, bound IgG was detected using a 1:5000 dilution of horseradish peroxidase (HRP)-conjugated goat F(ab′)₂ anti-human IgG (H+L) (Jackson Immunoresearch). Plates were developed with TMB (3,3′,5,5′-tetramethylbenzidine) two-component peroxidase substrate kit. Reactions were quenched with 1M phosphoric acid. Absorbance at 450 nm was recorded using a SpectraMax Plus spectrophotometer (Molecular Devices). Background absorbance was subtracted for samples, and % maximum binding was determined against an IgG or immune complex only control.

Test [2] has as its target T2, Rituximab G2 (galactosylated afucosylated glycoform).
T2 construct: Whole IgG1; also called G2-Rituximab; G2 glycoform of IgG1 Fc
Put plainly: SPR (Biacore T200), 1:1 Langmuir kinetic fit.

The target in test [3] is T3, IgG1 S2G2 glycoform (antibody clone not named).
T3 construct: also called afucosylated form of IgG1
Put plainly: ELISA with B7; the concentration of the IgG1 glycoform is varied.

For test [4], the target named is T4, aglycosylated 3B62 N297A mutant (aglycosylated (no N-glycan after N297A); the Fc is a disulfide-linked homodimer).
T4 construct: 297 is an EU position, not a position on the UniProt entry; also called aglycosylated N297A IgG1 mutant; aglycosylated IgG
As to the kind of experiment: SPR (Biacore T200). As to the method: Traces are raw data, while 1:1 Langmuir global kinetic fits are shown in black.
Surface Plasmon Resonance (SPR) was performed on a Biacore T200 machine (Cytiva Life Sciences). In some experiments, purified IgG glycoforms diluted in HBS-EP+ were immobilized on the surface of a Protein A or Protein G CM5 sensor chip at 1000 RU (˜50 nM). Purified nanobodies were flowed over IgG-bound sensor chips at the indicated concentrations at 30 uL/minute for 60 seconds, followed by 600 seconds of dissociation. Sensor chips were regenerated with 10 mM Glycine-HCl pH 1.5.

B1: X0 (VHH)
VHH: QVQLQESGGGLVQAGGSLRLSCAASPGISRYKTMGWYRQAPGKERSFVAAITWGGLTYYADSVKGRFTVSRDNAKNTVYLQMNSLKPEDTAVYYCSVDGGTRADPYHYYWGQGTQVTVSS
notes: also called clone X0; not shown: His tag and AviTag from the pET26-b(+) construct
On to B1, for which the “IC50 (read off the curve)” value in test [1] is about 1000 nM.

B2: mC11 (VHH)
VHH: QVQLQESGGGLVQAGGSLRLSCAASPGIYRYKTIAWYRQAPGKERSFVAAITWGGLTYRADSVKGRFTVSRDNAKNTVYLQMNSLKPEDTAVYYCSVDGGTRAQPVHYYWGQGTQVTVSS
notes: also called clone mC11; not shown: His tag and AviTag from the pET26-b(+) construct
Take B2: in test [1], the “IC50 (read off the curve)” value was about 400 nM.

B3: C11 (VHH, not shown: small tags and cut ends)
VHH: QVQLQESGGGLVQAGGSLRLSCAASGYISRYHTMGWYRQAPGKEREFVAGITWGGSTYYADSVKGRFTISRDNAKNTVYLQMNSLKPEDTAVYYCAVDGGTYADPYHYYWGQGTQVTVSS
notes: also called clone C11; C11 parental clone
In test [2], B3 yielded a Kd of 22800 nM.

B4: B7 (VHH, not shown: small tags and cut ends)
VHH: QVQLQESGGGLVQAGGSLRLSCAASGGISRYKTMGWYRQAPGKEREFVAGITWGGSTYYADSVKGRFTISRDNAKNTVYLQMNSLKPEDTAVYYCSVDGGTYADPYHYYWGQGTQVTVSS
notes: also called clone B7; nanobody B7
B4: the “EC50 (read off the curve)” value in test [3] is about 0.4 µg/mL. The binding result in test [4] was “no binding (tested: top concentration 256 nM)”.
